Data taken from PMC5382021.

Tests used:
Assay in all cases: purified protein
[1] = system: Nc1nc2c(ncn2[C@@H]2O[C@@H]3COP(=O)(O)O[C@H]4[C@@H](O)[C@H](n5cnc6c(N)ncnc65)O[C@@H]4COP(=O)(O)O[C@H]3[C@H]2O)c(=O)[nH]1; conditions: 50 mM Tris pH 7.5, 5 mM MnCl2, 37 °C
[2] = system: O=c1ccn([C@@H]2O[C@H](CO)[C@H]3OP(=O)(O)O[C@H]32)c(=O)[nH]1; conditions: 2 mM Mn2+, pH 7.5
[3] = system: [H][C@@]1(O)[C@]2([H])OP(=O)(O)OC[C@@]3([H])O[C@@]([H])(n4cnc5c(N)ncnc54)[C@]([H])(O)[C@]3([H])OP(=O)(O)OC[C@@]2([H])O[C@@]1([H])n1cnc2c(N)ncnc21; conditions: 50 mM Tris pH 7.5, 5 mM MnCl2, 37 °C
[4] = system: Nc1nc2c(ncn2[C@@H]2O[C@@H]3CO[P@](=O)(O)O[C@H]4[C@@H](O)[C@H](n5cnc6c(=O)[nH]c(N)nc65)O[C@@H]4CO[P@](=O)(O)O[C@H]3[C@H]2O)c(=O)[nH]1; conditions: 50 mM Tris pH 7.5, 5 mM MnCl2, 37 °C
[5] = system: Nc1nc2c(ncn2[C@@H]2O[C@H](CO)[C@H]3OP(=O)(O)O[C@H]32)c(=O)[nH]1; conditions: 2 mM Mn2+, pH 7.5

rCdnP (CdnP, Gbs1929) (Streptococcus agalactiae 2603V/R)
Km [1]: 4.0 ± 1.6 µM
kcat [1]: 4.5 s⁻¹
kcat/Km [1]: 1.1e+06 M⁻¹ s⁻¹
Km [2]: 42 ± 10 µM
kcat [2]: 19.8 s⁻¹
kcat/Km [2]: 470000 M⁻¹ s⁻¹
Km [3]: 14 ± 1 µM
kcat [3]: 17.4 s⁻¹
kcat/Km [3]: 1.2e+06 M⁻¹ s⁻¹
Km [4]: 13.2 ± 6 µM
kcat [4]: 2.6 s⁻¹
kcat/Km [4]: 190000 M⁻¹ s⁻¹
Km [5]: 22 ± 4 µM
kcat [5]: 9.4 s⁻¹
kcat/Km [5]: 420000 M⁻¹ s⁻¹
